± gives the uncertainty stated by the source.
assay: amyloid nucleation score (Sup35N fusion, yeast selection) (log enrichment); library NNK2; higher = more nucleation; inactive = no reads after selection
Summary of the method: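 For the nucleation score, DiMSum gave the log enrichment of output over input reads, centred on the mode score of non-aggregating sequences. Psi-negative yeast expressing Sup35N fused to peptides of 20 random codons were induced with 100 μM copper sulfate for 24 hours and grown 7 days at 30°C on medium lacking adenine and uracil. Input and output plasmid inserts were Illumina-sequenced, and sequences with under 100 input reads were excluded.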

Substance	amyloid nucleation score
WSYHF	-0.305 ± 0.8
RCGEVRYPCTDVYILGFRSV	-0.437 ± 0.63
VCFCQAFYGTRYHKCLVGLF	inactive
IYLFFSCFFAILTNLVRPFA	3.83 ± 0.081
SVLGTKVRVYRSGWTLRIFE	-0.456 ± 0.37
DYSFGMSCLEDIFREHEILG	-0.879 ± 1.1
YISFSDEVFV	inactive
RLLLCLRLSY	2.7 ± 0.12
FSRGDIVA	4.41 ± 0.056
IRGDNWMVCTTYTNSSFLRS	0.215 ± 0.57
SILSIYFDPYGCRL	0.164 ± 1.1
GVPESGIFLRAHY	inactive
VVSINVQVDHVCYAFSQVSQ	8.211 ± 0.062
IGTEMLTVYIFTYSSA	0.416 ± 0.74
FACIGGVLHAGGGVGAIGA	0.69 ± 0.42
GITSFDTIYCGRVVYQRWLL	0.578 ± 0.81
FGSAFTNGSVRNYVDGVQVI	0.648 ± 0.74
TDECWIGYFNSSAI	-0.053 ± 1
EADLYSTAIQLDK	-0.313 ± 0.44
FDTLKLCSMWDLCCHITRVA	5.904 ± 0.044
RFLLVRSCQAISNRGNGLRE	5.08 ± 0.042

Substance	amyloid nucleation score
NYAQATRMFFNLMKSWLKMR	-1.02 ± 1.1
MHSFHTICLLLMWRESRIAV	0.45 ± 0.39
WPVHV	-1.38 ± 1.1
TCVLKVFVL	-1.43 ± 1.1
KPCSGIRVCIDLCYPP	0.383 ± 0.74
ATLGTVRCYRKRAIFFEGHL	1.17 ± 0.45
LFLHVSGNAYGNNCRLSGPL	0.369 ± 0.22
IRQPSVKQPWTVAKTFH	0.052 ± 0.5
LTYRVCHEVQGQRYCMAREH	0.174 ± 0.74
NGIRQDNMGGVHVPTGSTII	-0.277 ± 0.39
GLVRSRVWRRASSPGYGECV	1.3 ± 0.33
IVFYMSS	1.53 ± 0.095
HNGVRRHMSNVSKILHSYF	0.02 ± 1
RQGFSVSSNRLGVFQSQEPG	-1.05 ± 0.78
TGVCPR	-0.674 ± 0.5
SFYWKMVW	0.512 ± 0.33
YSYPRS	inactive
GCFERGNLFNFV	inactive
RLTPYTFTWSVFEMFNLRMP	-1.09 ± 0.49
TRCGE	-0.134 ± 0.25
RARIWALGYSLEEIRRGLED	3.19 ± 0.11

Substance	amyloid nucleation score
YVTCCSGVGVMLFRCANLNC	5.37 ± 0.082
GKDGTFRVVPRQEDRSAHWL	-0.464 ± 1.1
VNIRGTHVLVRVYSQGRNRA	8.528 ± 0.062
NLMVHVFAAVMGINDLKC	1.41 ± 0.18
CDFAIPYYNGPYSQKFLMTS	-0.321 ± 0.8
DYWLMEWMRYVHRLVGNCWY	-0.959 ± 1.1
AMAVLALHTVRSQLP	5.988 ± 0.037
YQPRAYGKSPSIQFGQIVKQ	0.106 ± 0.31
LRSHLEYGRLCVCTQELMRR	4.882 ± 0.041
FIINKHSFQRGLFMVSLVSI	inactive
LVQCLLYSLWCQALSQPMYV	-0.753 ± 1
YDDKGEIRLPDQSMNCFVSD	-0.766 ± 1
TFCSPR	0.49 ± 0.5
GVEQFFGRSSAVHL	-0.341 ± 0.79
FLHVSRDLPYYYCFLV	-0.703 ± 0.74
SLMDLT	0.02 ± 0.54
LVYTPCLILGDELAVTGVKR	-0.337 ± 0.23
NMRSNRVSLVPDGMLRLSAN	1.39 ± 0.28
KRGMRRKGDFTERKVETLVG	2.39 ± 0.11
PPRGFFVAWIVDFRGAGLMG	-0.743 ± 0.48
YMFNSWYGLSSLWGKSKKMS	-0.538 ± 0.26

Substance	amyloid nucleation score
GDTCELCSVCQVNGV	1.15 ± 0.17
SECCLVELINLTDGGMRGSA	0.5 ± 0.42
SCLLYCYSNSWFFIFNQR	-0.979 ± 1
MVCKLTFRRRCPMNRSRHQV	0.469 ± 0.43
YIPKLLRCGRGCHYILSYAD	0.065 ± 0.62
RADTRFVAMGFGCRNVKPAV	-0.296 ± 0.54
SAVSMMLYWGSLNRVDYCWS	0.877 ± 0.32
SFGTFVSGTALLGSMFCTTG	0.285 ± 0.29
VLCRRHSN	1.41 ± 0.38
DVAIRVYYMYMYERYVTRLF	inactive
CWARMWGYSKCHSRVFSYMS	-1.1 ± 0.55
SQVQSFIFSPGLNNSKAEFT	-0.078 ± 0.8
VHELCTYNLFEPVCSLVWYR	9.545 ± 0.05
ILMRSYDFALGPNQCIIRAK	4.95 ± 0.074
VRCLVRYYAVR	-0.649 ± 0.79
RTGGNILQYFYIVRAHSGWC	1.35 ± 0.16
HRLVLDIGDQIWSKA	0.35 ± 0.56
WGLSRNSNIGHRVLIVAGNL	-0.683 ± 0.35
PCIGSQFFYSFGGLIK	-0.736 ± 0.35
VSWDISMNEVADWVVGAGGA	1.13 ± 0.42

Reference: the supplement of paper PMC12042874
